For assay [1], the target named is SynGAP[PSD95] condensates (mCherry-SynGAP with PSD95-mGFP) (human | rat) (UniProt P31016).
Sequence of UniProt P31016 (P31016 whole entry, looked up): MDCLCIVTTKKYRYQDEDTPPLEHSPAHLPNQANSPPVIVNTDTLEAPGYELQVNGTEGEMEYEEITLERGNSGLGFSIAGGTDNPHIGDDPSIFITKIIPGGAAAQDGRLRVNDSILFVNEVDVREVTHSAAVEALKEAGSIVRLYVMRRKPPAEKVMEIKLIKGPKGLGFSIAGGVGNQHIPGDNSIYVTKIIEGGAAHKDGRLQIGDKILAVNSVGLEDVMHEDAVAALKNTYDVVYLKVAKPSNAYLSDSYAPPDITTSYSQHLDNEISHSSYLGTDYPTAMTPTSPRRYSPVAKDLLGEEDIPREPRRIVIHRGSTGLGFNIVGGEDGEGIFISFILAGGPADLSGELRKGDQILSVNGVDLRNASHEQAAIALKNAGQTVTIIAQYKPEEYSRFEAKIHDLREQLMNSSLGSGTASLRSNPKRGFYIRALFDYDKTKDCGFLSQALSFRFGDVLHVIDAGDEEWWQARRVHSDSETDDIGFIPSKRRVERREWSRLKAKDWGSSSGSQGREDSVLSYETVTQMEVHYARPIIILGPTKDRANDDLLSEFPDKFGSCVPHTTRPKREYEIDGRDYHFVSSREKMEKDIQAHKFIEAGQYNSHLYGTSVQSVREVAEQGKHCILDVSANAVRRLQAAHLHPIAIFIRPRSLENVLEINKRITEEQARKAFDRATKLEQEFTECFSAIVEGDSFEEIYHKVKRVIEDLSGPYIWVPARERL

Turning to GluA1(ΔNTD)-TARP2, in the assay with GluA1(ΔNTD)-TARP2, the percent of molecules as dimers came to 45%, the percent of molecules as monomers is 41% and the percent of molecules as tetramers amounted to 14%.

Take GluA1-TARP2: in the assay with GluA1-TARP2, the percent of molecules as dimers amounted to 39%, the percent of molecules as monomers worked out at 19%, the percent of molecules as tetramers is 2% and the percent of molecules as trimers was 18%.

For the substance “Halo7-tagged wild-type Neuroligin1 (from UniProt Q99K10 46-843) (receptor)”, the fold of the fraction of the τ2 dwell-lifetime component against mNlg1 in assay [1] was found to be 2.5 fold.

These data come from publication doi:10.1101/2025.04.22.649955.
